Experimental data reported in patent US20220127354A1 (Amgen, published 2022).
Numbering of substitutions follows the chain as printed. Numbers in names are those of the source.

T1: raCDH19(1-43)::FLAG::raCDH19(44-770) (construct W, Ra EC1-5) (rat)
T1 construct: leader (1-43 of the entry) left out; also called rat Cadherin19
T1 chain: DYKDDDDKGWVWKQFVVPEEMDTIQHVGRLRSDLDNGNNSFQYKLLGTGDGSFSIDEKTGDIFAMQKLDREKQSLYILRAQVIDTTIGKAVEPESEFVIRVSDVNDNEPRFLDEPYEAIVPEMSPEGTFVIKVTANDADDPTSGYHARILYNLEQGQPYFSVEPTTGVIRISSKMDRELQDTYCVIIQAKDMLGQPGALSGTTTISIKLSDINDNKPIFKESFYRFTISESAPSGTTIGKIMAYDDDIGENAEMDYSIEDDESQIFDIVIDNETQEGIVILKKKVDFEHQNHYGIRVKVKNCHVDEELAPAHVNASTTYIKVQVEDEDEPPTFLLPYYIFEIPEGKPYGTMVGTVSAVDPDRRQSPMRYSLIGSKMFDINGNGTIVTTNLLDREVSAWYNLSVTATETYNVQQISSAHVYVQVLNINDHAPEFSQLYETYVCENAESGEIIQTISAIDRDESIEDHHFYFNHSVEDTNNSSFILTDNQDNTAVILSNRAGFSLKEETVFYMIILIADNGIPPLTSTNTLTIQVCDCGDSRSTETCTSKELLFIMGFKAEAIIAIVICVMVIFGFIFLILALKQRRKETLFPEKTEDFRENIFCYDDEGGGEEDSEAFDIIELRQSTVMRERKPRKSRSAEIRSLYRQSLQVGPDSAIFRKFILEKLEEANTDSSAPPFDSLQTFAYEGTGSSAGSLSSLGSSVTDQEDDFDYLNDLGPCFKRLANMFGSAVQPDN

T2: rhCDH19(1-43)::FLAG::rhCDH19(44-772) (construct P, Rh EC1-5) (rhesus macaque, UniProt Q9H159 44-772 (human entry))
T2 construct: leader (1-43 of the entry) left out; also called rhesus macaque Cadherin19
T2 chain: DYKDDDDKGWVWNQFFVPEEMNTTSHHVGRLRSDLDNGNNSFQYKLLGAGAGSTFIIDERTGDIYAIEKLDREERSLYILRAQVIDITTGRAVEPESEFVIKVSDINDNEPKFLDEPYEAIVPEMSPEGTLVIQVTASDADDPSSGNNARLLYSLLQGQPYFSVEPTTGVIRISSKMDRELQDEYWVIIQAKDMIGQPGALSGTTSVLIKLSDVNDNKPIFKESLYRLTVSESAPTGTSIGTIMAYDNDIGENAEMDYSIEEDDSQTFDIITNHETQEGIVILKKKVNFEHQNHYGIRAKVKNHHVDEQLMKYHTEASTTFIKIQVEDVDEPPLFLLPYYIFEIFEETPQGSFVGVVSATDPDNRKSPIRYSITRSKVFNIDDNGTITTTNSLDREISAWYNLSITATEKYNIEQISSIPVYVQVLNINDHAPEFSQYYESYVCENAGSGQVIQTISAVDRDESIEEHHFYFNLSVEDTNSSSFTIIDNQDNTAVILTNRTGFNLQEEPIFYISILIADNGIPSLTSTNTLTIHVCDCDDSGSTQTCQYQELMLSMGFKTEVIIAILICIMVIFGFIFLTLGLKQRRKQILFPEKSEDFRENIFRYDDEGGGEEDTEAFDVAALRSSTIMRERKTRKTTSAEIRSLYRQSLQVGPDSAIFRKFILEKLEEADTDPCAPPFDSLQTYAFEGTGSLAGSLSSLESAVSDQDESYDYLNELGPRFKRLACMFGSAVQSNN

T3: muCDH19(44-770) with Flag tag (construct I, Mu EC1-5) (mouse)
T3 construct: leader left out; the entry starts at residue 44; also called Mo EC1-5; mouse Cadherin19
T3 chain: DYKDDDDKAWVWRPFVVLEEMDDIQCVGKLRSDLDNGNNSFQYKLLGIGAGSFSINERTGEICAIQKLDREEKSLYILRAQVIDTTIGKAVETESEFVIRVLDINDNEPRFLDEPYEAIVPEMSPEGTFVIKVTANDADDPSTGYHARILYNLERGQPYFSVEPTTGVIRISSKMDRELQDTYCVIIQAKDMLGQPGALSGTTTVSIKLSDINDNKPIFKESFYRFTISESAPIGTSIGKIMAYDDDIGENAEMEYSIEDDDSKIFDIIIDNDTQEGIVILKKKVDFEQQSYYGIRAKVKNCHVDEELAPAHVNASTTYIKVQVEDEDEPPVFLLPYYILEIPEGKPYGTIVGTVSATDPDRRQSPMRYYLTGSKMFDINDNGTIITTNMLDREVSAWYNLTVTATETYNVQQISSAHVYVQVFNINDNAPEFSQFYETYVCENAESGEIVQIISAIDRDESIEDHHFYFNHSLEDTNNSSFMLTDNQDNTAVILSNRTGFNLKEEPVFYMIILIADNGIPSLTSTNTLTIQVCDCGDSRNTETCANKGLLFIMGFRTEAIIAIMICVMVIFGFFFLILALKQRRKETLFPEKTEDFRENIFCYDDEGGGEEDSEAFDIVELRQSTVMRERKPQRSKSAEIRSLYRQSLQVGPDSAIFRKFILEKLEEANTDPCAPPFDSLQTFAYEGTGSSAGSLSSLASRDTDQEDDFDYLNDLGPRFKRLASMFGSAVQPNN

B1: hu anti-<huCDH19> 26D1.1 (Ab ID 13882) (antibody, human IgG1, lambda, V domains shown)
VH: QVQLVQSGAEVKKPGASVKVSCKASRYTFTSYYMSWVRQAPGQGLEWMGIIHPSGGDTTYAQKFQGRVTMTGDTSTSTVYMELSSLRSEDTAVYYCARGGIKLWLHFDYWGQGTLVTVSS
VL: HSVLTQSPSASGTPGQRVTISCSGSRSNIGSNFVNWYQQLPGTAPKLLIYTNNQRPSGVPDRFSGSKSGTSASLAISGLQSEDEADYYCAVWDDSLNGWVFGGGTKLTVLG
notes: huIgG1z / huLLC-C2; Bin 2
B2: anti-CDH19 antibody 2G6 (Ab ID 13588) (antibody, human IgG1, lambda, V domains shown)
VH: QVQLVESGGGVVQPGRSLRLSCAASGFTFSSYGMHWVRQAPGKGLEWVAFIWYDGSNKYYADSVKDRFTISRDNSKNTLYLQMKSLRAEDTAVYYCARRAGIIGTIGYYYGMDVWGQGTTVTVSS
VL: SYELTQPPSVSVSPGQTASITCSGDRLGEKYTCWYQQRPGQSPLLVIYQDTKRPSGIPERFSGSNSGNTATLTISGTQAMDEADYYCQAWDSSTVVFGGGTKLTVLG
notes: Bin 4
B3: hu anti-<huCDH19> 4A9 (Ab ID 13589) (antibody, human IgG1, lambda, V domains shown)
VH: QVQLQESGPGLVKPSETLSLTCTVSGGSISGYYWSWIRQPPGKGLEWFAYFSYSGSTNYNPSLKSRVTLSVDTSKNQFSLKLSSVTAADTAVYYCARNWAFHFDFWGQGTLVTVSS
VL: QSVLTQPPSVSGAPGQRVTISCTGSSSNIGTGYAVHWYQQFPGTAPKLLIYGNNNRPSGVPDRFSGSKSGTSASLAITGLQAEDEADYYCQSYDSRLSGWVFGGGTKLTVLG
notes: huIgG1z / huLLC-C1; Bin 1
B4: hu anti-<huCDH19> 25F8.1 (1-469)(F90Y) VH::huIgG1z + 25F8.1 (1-235)(K45Q,S102A,D111E) VL::huLLC-C2 (Ab ID 14096) (antibody, V domains shown)
VH: B1 VH with R26G, M34I, S35H, H52N, D57S, T59R, G72R, K102Q
VL: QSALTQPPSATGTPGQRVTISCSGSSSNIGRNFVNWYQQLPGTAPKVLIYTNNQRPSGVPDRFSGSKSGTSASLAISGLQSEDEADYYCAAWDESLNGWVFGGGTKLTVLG
notes: Engineered variant of 25F8; the entries already carry the changes; Bin 2
B5: hu anti-<huCDH19> 4B10 (Ab ID 13590) (antibody, V domains shown)
VH: QVQLVESGGGVVQPGRSLRLSCAASGFTFSSYDMHWVRQAPGKGLEWVAVISYDGTNEYYADSVKGRFTISRDTSKNTLYLQMNSLRAEDTAVYYCARERYFDWSFDYWGQGTLVSVSS
VL: EIVLTQSPGTLSLSPGERATLSCRASQSVSNTYLAWYHQRPGQAPRLLIYGASSRATGIPDRFSGSGSGTDFALTISSLEPEDFAVYYCQQYSNSWTFGQGTKVEIKR
notes: huIgG1z / huKLC; Bin 4
B6: hu anti-<huCDH19> 23A10.3 (1-474)(L92Q) VH::huIgG1z + 23A10.3 (1-231)(C42S) VL::huLLC-C2 (Ab ID 14077) (antibody, V domains shown)
VH: B2 VH with S31R, M34I, F50V, D66G, K84N, T91S, I103P, I106T
VL: B2 VL with T32V, C33S, R38K, L44I, T51N, R53W
notes: Engineered variant of 23A10; the entries already carry the changes; Bin 4
B7: anti-CDH19 antibody 4A2 (Ab ID 13592) (antibody, human IgG1, kappa, V domains shown)
VH: QVQLQESGPGLVKPSQTLSLTCTVSGGSISSSGYYWSWIRQHPGKGLEWIGYIYYTGSAYYNPSLKSRVTISVDTSKNQFSLKLSSVTAADTAVYYCARDGSSGWYFQYWGQGTLVTVSS
VL: EIVLTQSPGTLSLSPGERATLSCRASRNISSSYLAWYQQKPGQAPRLLIYGPSSRATGIPDRFSGSGSGTDFTLTISRLEPEDFTVYYCQQYGSSFTFGPGTKVDIKR
notes: Bin 4

Target: T1, raCDH19(1-43)::FLAG::raCDH19(44-770) …
Assay: flow cytometry, transfected 293T cells, 2 mM CaCl2
Protocol: (§1) The following binding assay was completed in presence of 2 mM CaCl₂). […] Cells were then washed one time and the amount of cell associated Alexa647-labelled Ab was quantitated by flow cytometry. The experiments included mock transfected controls.

| Binder | binding result |
| --- | --- |
| B1 | no binding (tested: 5 ug/ml) |
| B2 | binds |
| B3 | no binding (tested: 5 ug/ml) |
| B4 | no binding (tested: 5 ug/ml) |
| B5 | binds |
| B6 | binds |

Target: T2, rhCDH19(1-43)::FLAG::rhCDH19(44-772) …
Assay: flow cytometry, transfected 293T cells, 2 mM CaCl2
Protocol: as §1

| Binder | binding result |
| --- | --- |
| B1 | binds |
| B2 | binds |
| B3 | binds |
| B4 | binds |
| B5 | binds |
| B6 | binds |
| B7 | binds |

Target: T3, muCDH19(44-770) with Flag tag …
Assay: flow cytometry, transfected 293T cells, 2 mM CaCl2
Protocol: as §1

| Binder | binding result |
| --- | --- |
| B1 | no binding (tested: 5 ug/ml) |
| B3 | no binding (tested: 5 ug/ml) |
| B5 | no binding (tested: 5 ug/ml) |
| B6 | binds |
